Results published in US9618524B2, “Method, composition, isolation and identification of a plaque particle and related biomarker” (Plaxgen Inc., priority 2012, dated 2017).

B1: Ig alpha-2 chain C region (protein)
chain: ASPTSPKVFPLSLDSTPQDGNVVVACLVQGFFPQEPLSVTWSESGQNVTARNFPPSQDASGDLYTTSSQLTLPATQCPDGKSVTCHVKHYTNSSQDVTVPCRVPPPPPCCHPRLSLHRPALEDLLLGSEANLTCTLTGLRDASGATFTWTPSSGKSAVQGPPERDLCGCYSVSSVLPGCAQPWNHGETFTCTAAHPELKTPLTANITKSGNTFRPEVHLLPPPSEELALNELVTLTCLARGFSPKDVLVRWLQGSQELPREKYLTWASRQEPSQGTTTYAVTSILRVAAEDWKKGETFSCMVGHEALPLAFTQKTIDRMAGKPTHINVSVVMAEADGTCY
B2: Apolipoprotein M (protein)
chain: MFHQIWAALLYFYGIILNSIYQCPEHSQLTTLGVDGKEFPEVHLGQWYFIAGAAPTKEELATFDPVDNIVFNMAAGSAPMQLHLRATIRMKDGLCVPRKWIYHLTEGSTDLRTEGRPDMKTELFSSSCPGGIMLNETGQGYQRFLLYNRSPHPPEKCVEEFKSLTSCLDSKAFLLTPRNQEACELSNN
B3: Ceruloplasmin (protein)
chain: KEKHYYIGIIETTWDYASDHGEKKLISVDTEHSNIYLQNGPDRIGRLYKKALYLQYTDETFRTTIEKPVWLGFLGPIIKAETGDKVYVHLKNLASRPYTFHSHGITYYKEHEGAIYPDNTTDFQRADDKVYPGEQYTYMLLATEEQSPGEGDGNCVTRIYHSHIDAPKDIASGLIGPLIICKKDSLDKEKEKHIDREFVVMFSVVDENFSWYLEDNIKTYCSEPEKVDKDNEDFQESNRMYSVNGYTFGSLPGLSMCAEDRVKWYLFGMGNEVDVHAAFFHGQALTNKNYRIDTINLFPATLFDAYMVAQNPGEWMLSCQNLNHLKAGLQAFFQVQECNKSSSKDNIRGKHVRHYYIAAEEIIWNYAPSGIDIFTKENLTAPGSDSAVFFEQGTTRIGGSYKKLVYREYTDASFTNRKERGPEEEHLGILGPVIWAEVGDTIRVTFHNKGAYPLSIEPIGVRFNKNNEGTYYSPNYNPQSRSVPPSASHVAPTETFTYEWTVPKEVGPTNADPVCLAKMYYSAVEPTKDIFTGLIGPMKICKKGSLHANGRQKDVDKEFYLFPTVFDENESLLLEDNIRMFTTAPDQVDKEDEDFQESNKMHSMNGFMYGNQPGLTMCKGDSVVWYLFSAGNEADVHGIYFSGNTYLWRGERRDTANLFPQTSLTLHMWPDTEGTFNVECLTTDHYTGGMKQKYTVNQCRRQSEDSTFYLGERTYYIAAVEVEWDYSPQREWEKELHHLQEQNVSNAFLDKGEFYIGSKYKKVVYRQYTDSTFRVPVERKAEEEHLGILGPQLHADVGDKVKIIFKNMATRPYSIHAHGVQTESSTVTPTLPGETLTYVWKIPERSGAGTEDSACIPWAYYSTVDQVKDLYSGLIGPLIVCRRPYLKVFNPRRKLEFALLFLVFDENESWYLDDNIKTYSDHPEKVNKDDEEFIESNKMHAINGRMFGNLQGLTMHVGDEVNWYLMGMGNEIDLHTVHFHGHSFQYKHRGVYSSDVFDIFPGTYQTLEMFPRTPGIWLLHCHVTDHIHAGMETTYTVLQNEDTKSG
B4: Vitamin D-binding protein (protein)
chain: LERGRDYEKNKVCKEFSHLGKEDFTSLSLVLYSRKFPSGTFEQVSQLVKEVVSLTEACCAEGADPDCYDTRTSALSAKSCESNSPFPVHPGTAECCTKEGLERKLCMAALKHQPQEFPTYVEPTNDEICEAFRKDPKEYANQFMWEYSTNYGQAPLSLLVSYTKSYLSMVGSCCTSASPTVCFLKERLQLKHLSLLTTLSNRVCSQYAAYGEKKSRLSNLIKLAQKVPTADLEDVLPLAEDITNILSKCCESASEDCMAKELPEHTVKLCDNLSTKNSKFEDCCQEKTAMDVFVCTYFMPAAQLPELPDVELPTNKDVCDPGNTKVMDKYTFELSRRTHLPEVFLSKVLEPTLKSLGECCDVEDSTTCFNAKGPLLKKELSSFIDKGQELCADYSENTFTEYKKKLAERLKAKLPDATPTELAKLVNKHSDFASNCCSINSPPLYCDSEIDAELKNIL
B5: Catalase (protein)
chain: ADSRDPASDQMQHWKEQRAAQKADVLTTGAGNPVGDKLNVITVGPRGPLLVQDVVFTDEMAHFDRERIPERVVHAKGAGAFGYFEVTHDITKYSKAKVFEHIGKKTPIAVRFSTVAGESGSADTVRDPRGFAVKFYTEDGNWDLVGNNTPIFFIRDPILFPSFIHSQKRNPQTHLKDPDMVWDFWSLRPESLHQVSFLFSDRGIPDGHRHMNGYGSHTFKLVNANGEAVYCKFHYKTDQGIKNLSVEDAARLSQEDPDYGIRDLFNAIATGKYPSWTFYIQVMTFNQAETFPFNPFDLTKVWPHKDYPLIPVGKLVLNRNPVNYFAEVEQIAFDPSNMPPGIEASPDKMLQGRLFAYPDTHRHRLGPNYLHIPVNCPYRARVANYQRDGPMCMQDNQGGAPNYYPNSFGAPEQQPSALEHSIQYSGEVRRFNTANDDNVTQVRAFYVNVLNEEQRKRLCENIAGHLKDAQIFIQKKAVKNFTEVHPDYGSHIQALLDKYNAEKPKNAIHTFVQSGSHLAAREKANL
B6: Cluster of Ig alpha-1 chain C region (protein, UniProt P01876 1-398, looked up)
Immunoglobulin heavy constant …: ASPTSPKVFPLSLCSTQPDGNVVIACLVQGFFPQEPLSVTWSESGQGVTARNFPPSQDASGDLYTTSSQLTLPATQCLAGKSVTCHVKHYTNPSQDVTVPCPVPSTPPTPSPSTPPTPSPSCCHPRLSLHRPALEDLLLGSEANLTCTLTGLRDASGVTFTWTPSSGKSAVQGPPERDLCGCYSVSSVLPGCAEPWNHGKTFTCTAAYPESKTPLTATLSKSGNTFRPEVHLLPPPSEELALNELVTLTCLARGFSPKDVLVRWLQGSQELPREKYLTWASRQEPSQGTTTFAVTSILRVAAEDWKKGDTFSCMVGHEALPLAFTQKTIDRLADWQMPPPYVVLDLPQETLEEETPGANLWPTTITFLTLFLLSLFYSTALTVTSVRGPSGNREGPQY
B7: Isoform 2 of Haptoglobin-related protein (protein)
chain: MHVCVCVCVCVYMPVCVDACMCCEAGRPAFRSFLFSLCSDLGAVISLLLWGRQLFALYSGNDVTDISDDRFPKPPEIANGYVEHLFRYQCKNYYRLRTEGDGVYTLNDKKQWINKAVGDKLPECEAVCGKPKNPANPVQRILGGHLDAKGSFPWQAKMVSHHNLTTGATLINEQWLLTTAKNLFLNHSENATAKDIAPTLTLYVGKKQLVEIEKVVLHPNYHQVDIGLIKLKQKVLVNERVMPICLPSKNYAEVGRVGYVSGWGQSDNFKLTDHLKYVMLPVADQYDCITHYEGSTCPKWKAPKSPVGVQPILNEHTFCVGMSKYQEDTCYGDAGSAFAVHDLEEDTWYAAGILSFDKSCAVAEYGVYVKVTSIQHWVQKTIAEN

Biological target: T1, alpha-synuclein plaque particles (Homo sapiens, UniProt P37840)
T1 construct: 140 amino acids polypeptide
Experiment: Mass spectroscopy proteomics, semi-quantitative binding affinity of serum proteins (plaqueproteome, Table 2)
Conditions: higher number = stronger affinity
Procedure, shortened: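 AD-subject plasma or serum (800 μL of 50%) mixed with 30 μg preformed alpha-synuclein aggregates for 1 h at 37 °C; Thioflavin S-positive particles isolated by flow sorting. After reduction, acrylamide alkylation and overnight tryptic digestion, serum proteins identified by MS/MS with Sequest and Scaffold.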

Going from B1 to B2, the “Semi-quantitative analysis of proteins binding to different plaque particles: Synuclein” value falls from 10 to 0.

First: B3
Second: B4
The “Semi-quantitative analysis of proteins binding to different plaque particles: Synuclein” value of the first is higher: 21 for the first, 17 for the second.

Compared with B5, B6 is higher in “Semi-quantitative analysis of proteins binding to different plaque particles: Synuclein” value: 0 for the first, 12 for the second.

For B7, the “Semi-quantitative analysis of proteins binding to different plaque particles: Synuclein” value was 14.

Tested on: Low density cholesterol (Chl small) plaque particles
Experiment: as above
Parameters: species or system human
Conditions: higher number = stronger affinity
Procedure, shortened: (§1)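 Atherosclerotic plasma/serum (50% in PBS) + 30 μg cholesterol aggregates, 1 hr 37° C; FACS gates split low- vs high-density particles. Acetone precipitation, urea/ProteaseMAX, acrylamide alkylation, overnight Trypsin/Lys C at 37° C; Sequest search, Scaffold/Protein Prophet validation.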

First: B1
Second: B2
The “Semi-quantitative analysis of proteins binding to different plaque particles: Chl small” value of the first is higher: 6 for the first, 0 for the second.

Going from B3 to B4, the “Semi-quantitative analysis of proteins binding to different plaque particles: Chl small” value falls from 22 to 18.

First: B5
Second: B6
The “Semi-quantitative analysis of proteins binding to different plaque particles: Chl small” value of the first is lower: 0 for the first, 9 for the second.

B7 was tested, and the “Semi-quantitative analysis of proteins binding to different plaque particles: Chl small” value was 12.

Tested on: High Density cholesterol (Chl Large) plaque particles
Experiment: as above
Parameters: species or system human
Conditions: higher number = stronger affinity
Procedure, shortened: as §1

Going from B1 to B2, the “Semi-quantitative analysis of proteins binding to different plaque particles: Chl Large” value falls from 9 to 0.

First: B3
Second: B4
The “Semi-quantitative analysis of proteins binding to different plaque particles: Chl Large” value of the first is lower: 20 for the first, 21 for the second.

First: B5
Second: B6
The “Semi-quantitative analysis of proteins binding to different plaque particles: Chl Large” value of the first is lower: 0 for the first, 10 for the second.

In the case of B7, the “Semi-quantitative analysis of proteins binding to different plaque particles: Chl Large” value is reported as 15.

Tested on: Tau plaque particles
Experiment: as above
Parameters: species or system human
Conditions: higher number = stronger affinity
Procedure, shortened: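 Synthetic Tau-74 and Tau-275 peptides (1 mg/mL PBS, 37° C, 2 h) aggregated; 30 μg aggregates incubated with 50% serum/plasma 1 h at 37° C, stained with Thioflavin S, and plaque particles sorted by flow cytometry. Bound proteins trypsin-digested and identified by MS/MS against human UniProt.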

First: B1
Second: B2
The “Semi-quantitative analysis of proteins binding to different plaque particles: Tau” value of the first is higher: 10 for the first, 0 for the second.

Going from B3 to B4, the “Semi-quantitative analysis of proteins binding to different plaque particles: Tau” value falls from 20 to 19.

Compared with B5, B6 is higher in “Semi-quantitative analysis of proteins binding to different plaque particles: Tau” value: 0 for the first, 12 for the second.

With B7 the “Semi-quantitative analysis of proteins binding to different plaque particles: Tau” value was 11.

Biological target: T2, Abeta-42 plaque particles (Homo sapiens, UniProt P05067)
T2 construct: Abeta 1-42
Experiment: as above
Conditions: higher number = stronger affinity
Procedure, shortened: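 AD patient serum or plasma (50% in PBS) was incubated with Abeta-42 aggregates (30 μg) for 1 h at 37 °C, then stained with Thioflavin S for 30 min. Labeled particles were FACS-sorted, trypsin/Lys-C digested overnight and analyzed by MS/MS. Sequest searched human UniProt; Scaffold/Protein Prophet validated the identifications.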

Compared with B1, B2 is higher in “Semi-quantitative analysis of proteins binding to different plaque particles: Abeta-42” value: 7 for the first, 18 for the second.

Going from B3 to B4, the “Semi-quantitative analysis of proteins binding to different plaque particles: Abeta-42” value rises from 9 to 12.

Compared with B5, B6 is lower in “Semi-quantitative analysis of proteins binding to different plaque particles: Abeta-42” value: 12 for the first, 9 for the second.

With B7 the “Semi-quantitative analysis of proteins binding to different plaque particles: Abeta-42” value was 11.
